Measured values reported in FireProtDB (doi:10.1021/bi952198j).
Where “and” joins values, the source holds several entries; their conditions need not be identical. Identical values can stand only once.

Settings: Aspergillus oryzae (strain ATCC 42149 / RIB 40), Thermal, DSC, reversible: yes, whole UniProt chain shown

B1: Guanyl-specific ribonuclease T1 wild type, P00651 (protein)
chain: MMYSKLLTLTTLLLPTALALPSLVERACDYTCGSNCYSSSDVSTAQAAGYQLHEDGETVGSNSYPHKYNNYEGFDFSVSSPYYEWPILSSGDVYSGGSPGADRVVFNENNQLAGVITHTGASGNNFVECT
- Tm (pH 2, glycine 50 mM): 34.9 °C
- heat capacity change of unfolding (pH 2, glycine 50 mM): 1.33 kcal/mol/K
- unfolding enthalpy (calorimetric) (pH 2, glycine 50 mM): 62.1 kcal/mol
- unfolding enthalpy (van 't Hoff) (pH 2, glycine 50 mM): 78.9 kcal/mol
- Tm (pH 2.4, glycine 50 mM): 41.4 °C
- heat capacity change of unfolding (pH 2.4, glycine 50 mM): 0.53 kcal/mol/K
- unfolding enthalpy (calorimetric) (pH 2.4, glycine 50 mM): 67.5 kcal/mol
- unfolding enthalpy (van 't Hoff) (pH 2.4, glycine 50 mM): 87.3 kcal/mol
- Tm (pH 2.5, glycine 50 mM): 45.8 °C
- heat capacity change of unfolding (pH 2.5, glycine 50 mM): 0.7 kcal/mol/K
- unfolding enthalpy (calorimetric) (pH 2.5, glycine 50 mM): 82.5 kcal/mol
- unfolding enthalpy (van 't Hoff) (pH 2.5, glycine 50 mM): 90.4 kcal/mol
- Tm (pH 2.75, glycine 50 mM): 48.5 °C
- heat capacity change of unfolding (pH 2.75, glycine 50 mM): 0.04 kcal/mol/K
- unfolding enthalpy (calorimetric) (pH 2.75, glycine 50 mM): 83.8 kcal/mol
- unfolding enthalpy (van 't Hoff) (pH 2.75, glycine 50 mM): 95.4 kcal/mol
- Tm (pH 2.8, Citric acid 50 mM): 48 °C
- heat capacity change of unfolding (pH 2.8, Citric acid 50 mM): 0.94 kcal/mol/K
- unfolding enthalpy (calorimetric) (pH 2.8, Citric acid 50 mM): 76.3 kcal/mol
- unfolding enthalpy (van 't Hoff) (pH 2.8, Citric acid 50 mM): 93.4 kcal/mol
- Tm (pH 3, Citric acid 50 mM): 50.5 °C
- heat capacity change of unfolding (pH 3, Citric acid 50 mM): 0.96 kcal/mol/K
- unfolding enthalpy (calorimetric) (pH 3, Citric acid 50 mM): 86.9 kcal/mol
- unfolding enthalpy (van 't Hoff) (pH 3, Citric acid 50 mM): 101 kcal/mol
- Tm (pH 3.5, Citric acid 50 mM): 56.5 °C
- heat capacity change of unfolding (pH 3.5, Citric acid 50 mM): 1.08 kcal/mol/K
- unfolding enthalpy (calorimetric) (pH 3.5, Citric acid 50 mM): 94.8 kcal/mol
- unfolding enthalpy (van 't Hoff) (pH 3.5, Citric acid 50 mM): 104 kcal/mol
- Tm (pH 3.7, Citric acid 50 mM): 58.3 °C
- heat capacity change of unfolding (pH 3.7, Citric acid 50 mM): 1.65 kcal/mol/K
- unfolding enthalpy (calorimetric) (pH 3.7, Citric acid 50 mM): 98.1 kcal/mol
- unfolding enthalpy (van 't Hoff) (pH 3.7, Citric acid 50 mM): 105 kcal/mol
- Tm (pH 4.5, Citric acid 50 mM): 58.7 °C
- heat capacity change of unfolding (pH 4.5, Citric acid 50 mM): 1.58 kcal/mol/K
- unfolding enthalpy (calorimetric) (pH 4.5, Citric acid 50 mM): 96.6 kcal/mol
- unfolding enthalpy (van 't Hoff) (pH 4.5, Citric acid 50 mM): 101 kcal/mol
- Tm (pH 5, Citric acid 50 mM): 60.1 °C
- heat capacity change of unfolding (pH 5, Citric acid 50 mM): 0.91 kcal/mol/K
- unfolding enthalpy (calorimetric) (pH 5, Citric acid 50 mM): 101 kcal/mol
- unfolding enthalpy (van 't Hoff) (pH 5, Citric acid 50 mM): 105 kcal/mol
- Tm (pH 5.5, Citric acid 50 mM): 65.3 °C
- heat capacity change of unfolding (pH 5.5, Citric acid 50 mM): 1.26 kcal/mol/K
- unfolding enthalpy (calorimetric) (pH 5.5, Citric acid 50 mM): 109 kcal/mol
- unfolding enthalpy (van 't Hoff) (pH 5.5, Citric acid 50 mM): 123 kcal/mol
- Tm (pH 6, Citric acid 50 mM): 64.7 °C
- heat capacity change of unfolding (pH 6, Citric acid 50 mM): 1.92 kcal/mol/K and 1.88 kcal/mol/K
- unfolding enthalpy (calorimetric) (pH 6, Citric acid 50 mM): 114 kcal/mol
- unfolding enthalpy (van 't Hoff) (pH 6, Citric acid 50 mM): 122 kcal/mol
- Tm (pH 6.5, Citric acid 50 mM): 64.2 °C
- heat capacity change of unfolding (pH 6.5, Citric acid 50 mM): 1.33 kcal/mol/K
- unfolding enthalpy (calorimetric) (pH 6.5, Citric acid 50 mM): 115 kcal/mol
- unfolding enthalpy (van 't Hoff) (pH 6.5, Citric acid 50 mM): 124 kcal/mol
